Changes are numbered by the printed parent chain. Each block holds one binder with its values, some of them ahead of it.
Experiments:
[1] = molecular target: T1, human MCAM C272A mutant (shotgun mutagenesis library clone, on cells) (human, UniProt P43121 24-646); assay: shotgun mutagenesis library, immunodetection on BHK cells, normalized to wild type MCAM
T1 construct: Expressed in BHK cells, immunodetection
T1 chain: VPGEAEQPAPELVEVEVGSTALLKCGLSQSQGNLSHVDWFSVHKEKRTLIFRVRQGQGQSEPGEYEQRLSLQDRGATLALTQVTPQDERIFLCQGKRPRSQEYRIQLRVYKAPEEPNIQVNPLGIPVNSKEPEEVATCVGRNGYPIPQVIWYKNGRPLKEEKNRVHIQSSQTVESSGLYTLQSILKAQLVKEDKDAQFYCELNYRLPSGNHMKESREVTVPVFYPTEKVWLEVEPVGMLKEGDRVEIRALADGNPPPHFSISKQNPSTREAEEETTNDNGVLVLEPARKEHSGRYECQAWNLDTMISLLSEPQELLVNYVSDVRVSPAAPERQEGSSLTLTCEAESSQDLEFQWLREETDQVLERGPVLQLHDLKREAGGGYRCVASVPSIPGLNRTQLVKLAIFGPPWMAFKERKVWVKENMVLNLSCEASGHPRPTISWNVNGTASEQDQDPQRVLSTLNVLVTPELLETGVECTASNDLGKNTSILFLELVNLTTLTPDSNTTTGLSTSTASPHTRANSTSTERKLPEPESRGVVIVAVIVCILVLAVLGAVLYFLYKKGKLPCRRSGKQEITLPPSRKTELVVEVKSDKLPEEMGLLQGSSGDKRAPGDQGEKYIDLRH

[2] = molecular target: T2, recombinant laminin 511 (UniProt O15230 36-3695; P07942 22-1786; P11047 34-1609); assay: flow cytometry on CHO cells transfected with human MCAM, pan-laminin antibody
T2 construct: also called laminin 10 (α5β1γ1)

B1: mouse anti-human MCAM monoclonal antibody clone 1749.1.3 (antibody, V domains shown)
VH: DVKLVESGGDLVKPGGSLKLSCAASGFTFSSYIMSWVRQTPEKRLEWVATISSGGSSTYYPDSVKGRFTISRDNAKNTLYLQMSSLKSEDTAMYYCTRDDDYDVKVFAYWGQGTLVTVSA
VL: DIVMSQSPSSLAVSAGEKVTMNCKSSRSLLNSRIRKNYLAWYQQKPGQSPKLLIYWASTRESGVPDRFTGSGSGTDFTLTISSVQAEDLAVYYCKQSYNLLTFGAGTKLELK
notes: Mouse hybridoma monoclonal antibody; also called m1749
- mean monoclonal antibody reactivity (% WT) [1]: < 30 % WT

- binding result [2]: no binding (tested: 10 μg/ml)
B2: human MCAM (full length, expressed on the surface of transfected cells) (receptor)
chain: T1 chain with A249C
notes: also called CD146; MUC18
